These results are taken from US11957716B2 (Immatics Biotechnologies GmbH, priority 2021, dated 2024).

The target of one experiment is HLA-B*07:0 (Homo sapiens, UniProt P01889). Description: MHC binding assay, UV-ligand exchange ELISA. The conditions noted are these: peptide exchange yield, binding to HLA-B*07:0. The source says:
(§1) Candidate peptides for T cell based therapies according to the present invention were further tested for their MHC binding capacity (affinity). The individual peptide-MHC complexes were produced by UV-ligand exchange, where a UV-sensitive peptide is cleaved upon UV-irradiation and exchanged with the peptide of interest as analyzed. Only peptide candidates that can effectively bind and stabilize the peptide-receptive MHC molecules prevent dissociation of the MHC complexes. To determine the yield of the exchange reaction, an ELISA was performed based on the detection of the light chain (β2m) of stabilized MHC complexes. The assay was performed as generally described in Rodenko et al. (Rodenko et al., 2006).
(§2) 96 well MAXISorp plates (NUNC) were coated over night with 2 μg/ml streptavidin in PBS at room temperature, washed 4× and blocked for 1 h at 37° C. in 2% BSA containing blocking buffer. Refolded HLA-A*02:01/MLA-001 monomers served as standards, covering the range of 15-500 ng/ml. Peptide-MHC monomers of the UV-exchange reaction were diluted 100-fold in blocking buffer. Samples were incubated for 1 h at 37° C., washed four times, incubated with 2 μg/ml HRP conjugated anti-82m for 1 h at 37° C., washed again and detected with TMB solution that is stopped with […]. Absorption was measured at 450 nm. Candidate peptides that show a high exchange yield (preferably higher than 50%, most preferred higher than 75%) are generally preferred for a generation and production of antibodies or fragments thereof, and/or T cell receptors or fragments thereof, as they show sufficient avidity to the MHC molecules and prevent dissociation of the MHC complexes.
A general note: An ELISA detects its analyte on a solid surface through an enzyme-linked reagent.

Experiment [1] concerns HLA-A*01:01, HLA-A*02:01, HLA-A*03:01, HLA-A*24:02, HLA-B*07:02, HLA-B*08:01 and HLA-B*44:02. Nature of the experiment: HLA alleles the peptides bind to (Table 7). Type of experiment: binding, human. The conditions noted are these: allotype from the group HLA-A*01:01, HLA-A*02:01, HLA-A*03:01, HLA-A*24:02, HLA-B*07:02, HLA-B*08:01, HLA-B*44:02. The source says:
However, due to similarities in binding pattern such as the relevant anchoring positions some peptides bind to more than one allele, such an overlap is most likely, but not limited to, HLA-A*01 binding peptides also binding to HLA-B*15, HLA-A*03 binding peptides also binding to HLA-A*11, HLA-B*07 binding peptides also binding to HLA-B*35 and HLA-B*51.

A further experiment addresses HLA-A*03:01 (Homo sapiens, UniProt P04439). Description: MHC binding assay, UV-ligand exchange ELISA. The settings on record: peptide exchange yield, binding to HLA-A*03:01.
Excerpt: as §1, §2

On to “157 (APLRAGWAA; listed as Homo sapiens) [compound 157]”, for which, in the experiment with HLA-B*07:0, the Peptide exchange entry was “++++ (≥75% = ++++)”.
The same measure, in the same setting: the same measure for “185 (MPAFLSRASAL; listed as Homo sapiens) [compound 185]”: “++++ (≥75% = ++++)”; for “140 (QPAPQPLL; listed as Homo sapiens) [compound 140]”: “+++ (≥50% = +++)”.
Same read-out and setting: the result for “129 (IPISIFKMA; listed as Homo sapiens) [compound 129]” reads “+++ (≥50% = +++)”; that for “64 (LPTRSLPAF; listed as Homo sapiens) [compound 64]”, “+++ (≥50% = +++)”; that for “77 (YPDVPIGQL; listed as Homo sapiens) [compound 77]”, “+++ (≥50% = +++)”.
For the substance “52 (SPLPHLGPL; listed as Homo sapiens) [compound 52]”, the Peptide exchange entry with HLA-B*07:0 was “+++ (≥50% = +++)”.
In the case of “110 (APSLARFLSL; listed as Homo sapiens) [compound 110]”, in the experiment with HLA-B*07:0, the Peptide exchange entry is on record as “++++ (≥75% = ++++)”.
As for “111 (RPIWDVRSA; listed as Homo sapiens) [compound 111]”, the Peptide exchange result in the experiment with HLA-B*07:0 is “++++ (≥75% = ++++)”.
The same measure, in the same setting: the same measure for “103 (RPWLSSPTGL; listed as Homo sapiens) [compound 103]”: “++++ (≥75% = ++++)”; for “199 (RAPLPLLLL; listed as Homo sapiens) [compound 199]”: “+++ (≥50% = +++)”.
Still for that read-out and setting: the result for “192 (IPLHFSTAF; listed as Homo sapiens) [compound 192]” reads “++++ (≥75% = ++++)”; that for “15 (SPVETRSLL; listed as Homo sapiens) [compound 15]”, “+++ (≥50% = +++)”; that for “169 (RPQGVGPAA; listed as Homo sapiens) [compound 169]”, “++++ (≥75% = ++++)”.
On the same count and under the same terms, the result for “78 (TPSHSTPSF; listed as Homo sapiens) [compound 78]” reads “+++ (≥50% = +++)”; that for “137 (MPIQVLKGL; listed as Homo sapiens) [compound 137]”, “++++ (≥75% = ++++)”; that for “156 (SLRVPSPAL; listed as Homo sapiens) [compound 156]”, “+++ (≥50% = +++)”.
For “109 (MPKLFLTAC; listed as Homo sapiens) [compound 109]”, the Peptide exchange entry with HLA-B*07:0 is reported as “++++ (≥75% = ++++)”.
The same measure, in the same setting: the same measure for “66 (RPLILIRI; listed as Homo sapiens) [compound 66]”: “++ (≥20% = ++)”; for “85 (LPHPVNSGL; listed as Homo sapiens) [compound 85]”: “+++ (≥50% = +++)”; for “182 (RPSLPCRSF; listed as Homo sapiens) [compound 182]”: “+++ (≥50% = +++)”.
On the same count and under the same terms, the result for “184 (VVHGGMSIF; listed as Homo sapiens) [compound 184]” reads “++ (≥20% = ++)”.
For the substance “187 (RLCPAAPTGK; listed as Homo sapiens) [compound 187]”, the “Binders (HLA alleles the peptides according to the invention bind to)” value (from here on “Binders”) in experiment [1] was “HLA-A*03:01”. In the experiment with HLA-A*03:01, the Peptide exchange result is “++++ (≥75% = ++++)”.
In the same order, the values of “101 (ATNSFLLIK; listed as Homo sapiens) [compound 101]” are “HLA-A*03:01” and “++++ (≥75% = ++++)”.
In the same order, the values of “152 (KIMEILNLK; listed as Homo sapiens) [compound 152]” are “HLA-A*03:01” and “++++ (≥75% = ++++)”.
In the same order, the values of “50 (KTIDLVIVR; listed as Homo sapiens) [compound 50]” are “HLA-A*03:01” and “++++ (≥75% = ++++)”.
Regarding “72 (GSCSFALSR; listed as Homo sapiens) [compound 72]”, the “Binders” value in experiment [1] was “HLA-A*03:01”. In addition, the Peptide exchange entry in the experiment with HLA-A*03:01 is recorded as “++++ (≥75% = ++++)”.
In the same order, the values of “202 (KLLLLSSVK; listed as Homo sapiens) [compound 202]” are “HLA-A*03:01” and “+++ (≥50% = +++)”.
In the same order, the values of “2 (GTVFVLLSK; listed as Homo sapiens) [compound 2]” are “HLA-A*03:01” and “++ (≥20% = ++)”.
In the same order, the values of “91 (RIVTYIVAK; listed as Homo sapiens) [compound 91]” are “HLA-A*03:01” and “+++ (≥50% = +++)”.
Consider “88 (KVGAVVHLK; listed as Homo sapiens) [compound 88]”, for which the “Binders” value in experiment [1] was “HLA-A*03:01”. In addition, the Peptide exchange result in the experiment with HLA-A*03:01 is on record as “+++ (≥50% = +++)”.
In the same order, the values of “22 (RVIEVVMNSK; listed as Homo sapiens) [compound 22]” are “HLA-A*03:01” and “++++ (≥75% = ++++)”.
Turning to “151 (AVFVNWEQTKK; listed as Homo sapiens) [compound 151]”, in experiment [1], the “Binders” value is “HLA-A*03:01”. In addition, the Peptide exchange entry in the experiment with HLA-A*03:01 is recorded as “++++ (≥75% = ++++)”.
In the same order, the values of “209 (AILLPQLPK; listed as Homo sapiens) [compound 209]” are “HLA-A*03:01” and “++++ (≥75% = ++++)”.
In the same order, the values of “149 (SMNSKALRWK; listed as Homo sapiens) [compound 149]” are “HLA-A*03:01” and “+++ (≥50% = +++)”.
In the same order, the values of “174 (LSGPVTFLR; listed as Homo sapiens) [compound 174]” are “HLA-A*03:01” and “+++ (≥50% = +++)”.
Consider “154 (TVTSAIVNR; listed as Homo sapiens) [compound 154]”, for which the “Binders” value in experiment [1] is recorded as “HLA-A*03:01”. Further, the Peptide exchange entry with HLA-A*03:01 is “+++ (≥50% = +++)”.
On to “104 (GSLQTLPPK; listed as Homo sapiens) [compound 104]”, for which the “Binders” value in experiment [1] is listed as “HLA-A*03:01”. The Peptide exchange result with HLA-A*03:01 is “+++ (≥50% = +++)”.
In the same order, the values of “148 (SVYMATTLK; listed as Homo sapiens) [compound 148]” are “HLA-A*03:01” and “++++ (≥75% = ++++)”.
In the same order, the values of “190 (STQSSLLYLK; listed as Homo sapiens) [compound 190]” are “HLA-A*03:01” and “+++ (≥50% = +++)”.
In the same order, the values of “161 (ILAASFQAR; listed as Homo sapiens) [compound 161]” are “HLA-A*03:01” and “+++ (≥50% = +++)”.
With “143 (AVLGALLRH; listed as Homo sapiens) [compound 143]”, the “Binders” value in experiment [1] is listed as “HLA-A*03:01”. Further, the Peptide exchange result with HLA-A*03:01 is reported as “++++ (≥75% = ++++)”.
In the same order, the values of “37 (RLYSGSSFLY; listed as Homo sapiens) [compound 37]” are “HLA-A*03:01” and “++++ (≥75% = ++++)”.
In the same order, the values of “17 (MVNWSLTNK; listed as Homo sapiens) [compound 17]” are “HLA-A*03:01” and “++++ (≥75% = ++++)”.
In the same order, the values of “128 (MTFVPLLAR; listed as Homo sapiens) [compound 128]” are “HLA-A*03:01” and “++++ (≥75% = ++++)”.
Turning to “150 (IVFLLQQGEK; listed as Homo sapiens) [compound 150]”, the “Binders” value in experiment [1] was “HLA-A*03:01”. In the experiment with HLA-A*03:01, the Peptide exchange entry is reported as “+++ (≥50% = +++)”.
In the same order, the values of “25 (GVCSTLTIK; listed as Homo sapiens) [compound 25]” are “HLA-A*03:01” and “++++ (≥75% = ++++)”.
In the same order, the values of “138 (RTLPLEGSPK; listed as Homo sapiens) [compound 138]” are “HLA-A*03:01” and “+++ (≥50% = +++)”.
